# Experimental data taken from patent publication US20220144960A1 (NANJING LEGEND BIOTECH, published 2022).
# Where a chain is given by its changes, count along the chain named.
# T1: CD30 on CD30-expressing tumor cell lines (HH, MJ, H9) (UniProt P28908 19-595)
# T1 sequence (looked up): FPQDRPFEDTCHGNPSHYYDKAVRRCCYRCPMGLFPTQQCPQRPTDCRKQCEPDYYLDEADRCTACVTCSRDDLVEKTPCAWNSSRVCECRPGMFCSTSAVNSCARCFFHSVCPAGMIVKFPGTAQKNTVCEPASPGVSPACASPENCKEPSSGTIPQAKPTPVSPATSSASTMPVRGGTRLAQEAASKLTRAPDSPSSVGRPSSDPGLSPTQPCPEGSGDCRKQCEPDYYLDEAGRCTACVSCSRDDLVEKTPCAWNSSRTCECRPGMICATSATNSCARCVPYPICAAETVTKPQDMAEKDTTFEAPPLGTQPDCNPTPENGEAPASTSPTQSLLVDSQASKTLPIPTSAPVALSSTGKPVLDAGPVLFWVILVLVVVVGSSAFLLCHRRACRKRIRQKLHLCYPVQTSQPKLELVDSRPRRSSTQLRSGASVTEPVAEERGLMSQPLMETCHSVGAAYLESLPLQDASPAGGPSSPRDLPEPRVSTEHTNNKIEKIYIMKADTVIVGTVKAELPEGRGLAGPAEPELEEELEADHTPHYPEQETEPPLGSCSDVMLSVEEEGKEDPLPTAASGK
# B1: 5F11bbz CAR (other)
# chain: DIQMTQSPTSLSASVGDRVTITCRASQGISSWLTWYQQKPEKAPKSLIYAASSLQSGVPSRFSGSGSGTDFTLTISSLQPEDFATYYCQQYDSYPITFGQGTRLEIKGSTSGSGKPGSGEGSTKGQVQLQQWGAGLLKPSETLSLTCAVYGGSFSAYYWSWIRQPPGKGLEWIGDINHGGGTNYNPSLKSRVTISVDTSKNQFSLKLNSVTAADTAVYYCASLTAYWGQGSLVTVSSTTTPAPRPPTPAPTIASQPLSLRPEACRPAAGGAVHTRGLDFACDIYIWAPLAGTCGVLLLSLVITLYCKRGRKKLLYIFKQPFMRPVQTTQEEDGCSCRFPEEEEGGCELRVKFSRSADAPAYKQGQNQLYNELNLGRREEYDVLDKRRGRDPEMGGKPRRKNPQEGLYNELQKDKMAEAYSEIGMKGERRRGKGHDGLYQGLSTATKDTYDALHMQALPPR
# B2: AS48542VH5bbz CAR (other)
# chain: EVQLVESGGGLVQPGGSLRLSCATSAFTFDGPDMAWYRQAPGKGCELVSIISADGRTYYADSVKGRFTISRDNSKNTVYLQMNSLRAEDTAVYYCALDPRKNCRGGYCCANWGQGTLVTVSSTTTPAPRPPTPAPTIASQPLSLRPEACRPAAGGAVHTRGLDFACDIYIWAPLAGTCGVLLLSLVITLYCKRGRKKLLYIFKQPFMRPVQTTQEEDGCSCRFPEEEEGGCELRVKFSRSADAPAYKQGQNQLYNELNLGRREEYDVLDKRRGRDPEMGGKPRRKNPQEGLYNELQKDKMAEAYSEIGMKGERRRGKGHDGLYQGLSTATKDTYDALHMQALPPR
# B3: AS47863bbz CAR (other)
# chain: QVQLEESGGGSVQAGETLRLSCTASGSTFGDSDMGWYRQAPGNACELVSIISSDGRTYYVDSVKGRFTISQDNAVSTVYLQMNSLKPEDTGVYYCAADLRQYCRDGRCCGYWGQGTQVTVSSTTTPAPRPPTPAPTIASQPLSLRPEACRPAAGGAVHTRGLDFACDIYIWAPLAGTCGVLLLSLVITLYCKRGRKKLLYIFKQPFMRPVQTTQEEDGCSCRFPEEEEGGCELRVKFSRSADAPAYKQGQNQLYNELNLGRREEYDVLDKRRGRDPEMGGKPRRKNPQEGLYNELQKDKMAEAYSEIGMKGERRRGKGHDGLYQGLSTATKDTYDALHMQALPPR
# B4: AS48433bbz CAR (other)
# chain: B3 chain with V2I, E5V, K86N, Q101L, Y102N
# B5: AS48481bbz CAR (other)
# chain: EVQLVASGGGSVQAGETLRLSCTASGFTFADSAMGWYRKGPGNVCDLVAIIRTDGTTYYGDSAKGRFTISRDNAKSTLYLQMNSLKPEDTAVYFCAADRETSFIGGSWCVAKYWDQGTQVTVSSTTTPAPRPPTPAPTIASQPLSLRPEACRPAAGGAVHTRGLDFACDIYIWAPLAGTCGVLLLSLVITLYCKRGRKKLLYIFKQPFMRPVQTTQEEDGCSCRFPEEEEGGCELRVKFSRSADAPAYKQGQNQLYNELNLGRREEYDVLDKRRGRDPEMGGKPRRKNPQEGLYNELQKDKMAEAYSEIGMKGERRRGKGHDGLYQGLSTATKDTYDALHMQALPPR
# B6: AS57659bbz CAR (other)
# chain: DIQMTQSPSSLSASVGDRVTITCRASQSVSSAVAWYQQKPGKAPKLLIYSASSLYSGVPSRFSGSRSGTDFTLTISSLQPEDFATYYCQQPYYLITFGQGTKVEIKGGGGSGGGGSGGGGSEVQLVESGGGLVQPGGSLRLSCAASGFNIYSYYIHWVRQAPGKGLEWVASIYSSYSSTYYADSVKGRFTISADTSKNTAYLQMNSLRAEDTAVYYCARSWFSYPGLDYWGQGTLVTVSSTTTPAPRPPTPAPTIASQPLSLRPEACRPAAGGAVHTRGLDFACDIYIWAPLAGTCGVLLLSLVITLYCKRGRKKLLYIFKQPFMRPVQTTQEEDGCSCRFPEEEEGGCELRVKFSRSADAPAYKQGQNQLYNELNLGRREEYDVLDKRRGRDPEMGGKPRRKNPQEGLYNELQKDKMAEAYSEIGMKGERRRGKGHDGLYQGLSTATKDTYDALHMQALPPR
# B7: AS48463bbz CAR (other)
# chain: QVHLMESGGGSVQAGETLRLSCTASGFTFANSDMGWYRQAPGNACELVSIISSHGGTTYYVDSVKGRFTISRHNAENTVYLRMTSLKPEDTALYYCVADPRSNCRGGYCCGYWGPGTQVTVSSTTTPAPRPPTPAPTIASQPLSLRPEACRPAAGGAVHTRGLDFACDIYIWAPLAGTCGVLLLSLVITLYCKRGRKKLLYIFKQPFMRPVQTTQEEDGCSCRFPEEEEGGCELRVKFSRSADAPAYKQGQNQLYNELNLGRREEYDVLDKRRGRDPEMGGKPRRKNPQEGLYNELQKDKMAEAYSEIGMKGERRRGKGHDGLYQGLSTATKDTYDALHMQALPPR
# B8: AS57911bbz CAR (other)
# chain: DIQMTQSPSSLSASVGDRVTITCRASQSVSSAVAWYQQKPGKAPKLLIYSASSLYSGVPSRFSGSRSGTDFTLTISSLQPEDFATYYCQQSHALITFGQGTKVEIKGGGGSGGGGSGGGGSEVQLVESGGGLVQPGGSLRLSCAASGFNISSSYIHWVRQAPGKGLEWVAYISSYYSYTYYADSVKGRFTISADTSKNTAYLQMNSLRAEDTAVYYCARGYPYGMDYWGQGTLVTVSSTTTPAPRPPTPAPTIASQPLSLRPEACRPAAGGAVHTRGLDFACDIYIWAPLAGTCGVLLLSLVITLYCKRGRKKLLYIFKQPFMRPVQTTQEEDGCSCRFPEEEEGGCELRVKFSRSADAPAYKQGQNQLYNELNLGRREEYDVLDKRRGRDPEMGGKPRRKNPQEGLYNELQKDKMAEAYSEIGMKGERRRGKGHDGLYQGLSTATKDTYDALHMQALPPR
# B9: AS53445bbz CAR (other)
# chain: QVQLVESGGGSVQAGGSLRLSCTASGYIFCMGWFRQAPGKAREGIATIYTGGDSTYYDDSVKGRFTISRDNAKNTVYLQMNSLKPEDTAMYYCAAGGQECYLTNWVSYWGQGTQVTVSSTTTPAPRPPTPAPTIASQPLSLRPEACRPAAGGAVHTRGLDFACDIYIWAPLAGTCGVLLLSLVITLYCKRGRKKLLYIFKQPFMRPVQTTQEEDGCSCRFPEEEEGGCELRVKFSRSADAPAYKQGQNQLYNELNLGRREEYDVLDKRRGRDPEMGGKPRRKNPQEGLYNELQKDKMAEAYSEIGMKGERRRGKGHDGLYQGLSTATKDTYDALHMQALPPR
# B10: AS47863VH4bbz CAR (other)
# chain: EVQLVESGGGLVQPGGSLRLSCAASGSTFGDSDMGWYRQAPGKGCELVSIISSDGRTYYVDSVKGRFTISQDNSKNTLYLQMNSLRAEDTAVYYCAADLRQYCRDGRCCGYWGQGTLVTVSSTTTPAPRPPTPAPTIASQPLSLRPEACRPAAGGAVHTRGLDFACDIYIWAPLAGTCGVLLLSLVITLYCKRGRKKLLYIFKQPFMRPVQTTQEEDGCSCRFPEEEEGGCELRVKFSRSADAPAYKQGQNQLYNELNLGRREEYDVLDKRRGRDPEMGGKPRRKNPQEGLYNELQKDKMAEAYSEIGMKGERRRGKGHDGLYQGLSTATKDTYDALHMQALPPR
# B11: AS48463VH4bbz CAR (other)
# chain: EVQLLESGGGLVQPGGSLRLSCAASGFTFANSDMGWYRQAPGKGCELVSIISSHGGTTYYVDSVKGRFTISRDNSKNTLYLQMNSLRAEDTAVYYCVADPRSNCRGGYCCGYWGQGTLVTVSSTTTPAPRPPTPAPTIASQPLSLRPEACRPAAGGAVHTRGLDFACDIYIWAPLAGTCGVLLLSLVITLYCKRGRKKLLYIFKQPFMRPVQTTQEEDGCSCRFPEEEEGGCELRVKFSRSADAPAYKQGQNQLYNELNLGRREEYDVLDKRRGRDPEMGGKPRRKNPQEGLYNELQKDKMAEAYSEIGMKGERRRGKGHDGLYQGLSTATKDTYDALHMQALPPR
# Molecular target: T1, CD30 on CD30-expressing tumor cell …
# Experiment: cell-based or functional assay
"% H9 cell lysis E:T = 0.2:1 (FACS method, CAR T cells) [%]","% MJ cell lysis E:T = 0.2:1 (FACS method, CAR T cells) [%]",Binder
16,2.3,B1
38,58.6,B2

# Molecular target: T1, CD30 on CD30-expressing tumor cell …
# Experiment: cell-based or functional assay
# Remark: another data set of the same source
"% H9 cell lysis E:T = 2:1 (LDH assay, CAR T cells) [%]","% MJ cell lysis E:T = 1:1 (LDH assay, CAR T cells) [%]",Binder
45,41,B1
62,65,B2

# Molecular target: T1, CD30 on CD30-expressing tumor cell …
# Experiment: cell-based or functional assay
# Remark: another data set of the same source
row,"% MJ cell lysis E:T = 0.5:1 (LDH assay, CAR T cells) [%]",Binder
1,65,B3
2,50.5,B4
3,45.1,B5
4,42,B6
5,60.8,B7
6,43.9,B8
7,29.9,B1
8,24.6,B9

# Molecular target: T1, CD30 on CD30-expressing tumor cell …
# Experiment: cell-based or functional assay
# Remark: another data set of the same source
"% H9 cell lysis E:T = 2:1 (LDH assay, CAR T cells) [%]","% MJ cell lysis E:T = 1:1 (LDH assay, CAR T cells) [%]",Binder
45,41,B1
62,65,B2
63,57,B10
64,67,B11
